Data published in the nanobody polyreactivity screen of Harvey et al. (2022).

Experiment: yeast display, Sf9 membrane polyspecificity reagent, FACS + sequencing; frameworks hold sequencing errors
Procedure, shortened: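 Galactose induction of a Saccharomyces cerevisiae BJ5465 synthetic nanobody display library ran 36–48 hours. The cells were then stained for 1 hour at 4 °C with 10% biotinylated, detergent-solubilized Sf9 membrane reagent, pulled down on streptavidin microbeads and FACS-sorted into low and high (top ~1%) gates on expression and reagent-binding fluorescence. Labels for polyreactivity follow the gate of origin.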

Row | Sequence | polyreactivity (PSR sort gate)
1 | QVQLVESGGGLVQAGGSLRLSCAASGLIFRRYAMGWYRQAPGKERELVAAITIGGSTSYADSVKGRFTISRDNAKNTVYLQMNSLKPEDTAVYYCAARWGALWYRPYDYWGQGTQVTVSS | high polyreactivity
2 | QVQLVESGGGLVQAGGSLRLSCAASGRIFPPYDMGWYRQAPGKETELVAAISYRGGSTYYADSVKGRFTISRDNAKNTVYLQMNSLKPEVTAVYYCNVGSRGGWDASDYDYWGQCTQVTVSS | high polyreactivity
3 | QVQLVESGGGLVQAGGSHRLSCAASGSTFNYYAMGWYRQAPGKERELVAAISRGGSTYYADSVKGRFTISRDNAKNTVYLQMNSLKPEDNAVYYCHARPTRIYHGMGFWGQGTQVNVSS | low polyreactivity
4 | QVQLVESGGGLVQAGGSLRLSCAASGRIFGYYAMGWYRQAPGKERELVAAISSSGGSTYYADSVKGRFTISRDNAKNTVYLQMNSLKPEDTAVYYCAAGGPRVNGYGRAYDYWGQGTQVTVSS | high polyreactivity
5 | QVQLVESGGGLVQAGGSLRLSCAASGFTFSRNAMGWYRQAPGKERELVAAISGRTGTTYYADSVKGRFTISRDNAKNTVYLQMNSLKTVDTAVYYCAKSSGRYRSDYWGQGTQVTVSS | high polyreactivity
6 | QVQLVESGGGLVQAGGSLRLSCAASGRIFGLYAMGWYRQAPGKERELVAAISWSGGRTYYADSVKGRFTISRDNAKNTVYLQMNSLKPEDTAVYYCAARSYYRSQYGFDFWGQGTQVTVSS | high polyreactivity
7 | QVQLVESGGGLVQAGGSLRLSCAASGSTFYFIAMGWFRQAPGKEWELVAVIDGSGGFTYYADSVKGRFTISRDNAKNTVYLQMNSLKPEDTAVYYCAADKTQSHYDDWGQGTQVTVTS | high polyreactivity
8 | QVQLVESGGGLVQAGGSLRLSCAASGSTFAVYAMGWYRQAPGKERELVAAITWSGGSTYYADSVKGRFTISRDNAKNTVYLQMNSLKPEDTAVYYCAATLIYHYWQLFIISTMGYWGQGTQVTVSS | low polyreactivity
9 | QVQLVESGGGLVQAGGSLRLSCAASGIIFYFYAMGWYRQAPGKERELVAAISRGGSTKYADSVKGRFTISRDNAKNTVYLQMNSLKPEDTAVYYCAATRRRPSEYYYWGQGTQVTVSS | high polyreactivity
10 | QVQLVESGGGLVQAGGSLRLSCAASGFIFNHYAMGWYRQAPGKEREFVAAISWSGTRTYYADSVKGRFTISRDNAKNTVYLQMNSLKPEDTSVYYCAADVWGPYDYWGQGTQLTVSS | low polyreactivity
11 | QVQLVESGGGLVQAGGSLRLSCSASGFTFRVNALGWYRQAPGKERELVAAITYSGGSTYYADSVKGRFTISRDNAKNTVYLQMNSLNPEDTAVYYCAAGYFFPRLRFRNYAYGYWGQGTQVTVST | high polyreactivity
12 | QVQLVESGGALVQAGGSLRLSCAASRFTFTRYVMGWYSQAPGKERELVAAISINGGRTYYADSVKGRFTISRDNAKNTVYLQMNSLKPEDTAVYDCAAERYYWYTEMGYWGQGTQVTVSS | high polyreactivity
13 | QVQLVESGGGLVQAGGSLRLSCAASGIIFLWYAMGWYRQAPGKERELVAAITSGGSTYYADSVKGRFTISRDNAKNTVYLQMNSLKPEDTAVYYCAAVNGWRRVKRFDYWGQGTQVTVSS | high polyreactivity
14 | QVQLVESGGGLVQAGGSLRLSCAASGSIYYYVMGWYRQAPGKERELVAAISRSTGRTYYADSVKGRFTISRDNAKNTVYLQMNSLKPEDTAVYYCNKVVPHKPPTMDYWGQGTQVTVSS | high polyreactivity
15 | QVQLVESGGGLVQAGGSLRLSCAASGNIFSYYAIGSYRHAPRKEREFVAANDWNGGTTYYADSVKGRFTISRDNAKNTVYLQMNSLKPEDTAVYYCAAEYGTWYIPEGEYWGQGTQVTVSS | high polyreactivity
16 | QVHLVESGGGLVQAGGSLRLSCAASGFTFDYYTMGWYRPAPGKERELVAAITSSAGSTDYADSVKGRFTISRDNAKNTVYLQMNSLKPEDTAVYYCNADFLYGTYDYWGQGTQVTVSS | low polyreactivity
17 | QVQLVESGGGLDQAGGSLRLRCAPSGRIFSYVMGWYRQAPGKERELVAAISGGVRTYYADSVKGRFTISRDNAKNTVYLQMNSLKPEDTAVYYCNADWYRKRNYWGQGTQVTVSS | high polyreactivity
18 | QVQLVESGGGLVQAGGSLRISCAASGFTFYRYAMGWSIPAPGKERELVAAISSHGDSTYYADSVKGRFTISRDNAKNTVYLQMNSLKPEDTAVYYCNVETLYGYFLHFYLRYYHWGQGTQVTVSS | high polyreactivity
19 | QVQLVESGGGLVQAGGSLRLSCAASGSTFGYYAMGWYRQAPGKERELVAAIRYSGGTTYYADSVKGRFTISRDNAKNTVYLQMNSLKPEDTAVYYCAAVYTSGYYYWGQGTQVTVSS | high polyreactivity
20 | QVQLVESGGGLVQAGGSLRLSCAASGSTFFSNTMGWYRQAPGKERELVAAITSRGGRTYYADSVKGRFTISRDNAKNTVYLQMNSLKPEDTAVYYCAARFVLHGVYLKFYWGQGTQVTVSS | high polyreactivity
21 | QVQLVESGGGLVHAGGSIRLSCAASGRTFAYNDMGWYTQAPGTERELVAAISWSDGTTYYADSVKGRFTISRDNAKNPVYLQMHCLKPEDTAVYYCAAESYPSEVASYVSEYDYWGQGTQVTVSS | low polyreactivity
22 | QVQLVESGGGLVQAGGSLRLSCAASGSTFTVNDMGWYRQAPGKERELVAAITQRDGRTFYADSVKGRFTISRDNAKNTVYLQINSLKPEDTGVYYCAADYGWYTYGDYDYWGQGTQVTVSS | low polyreactivity

Row | Sequence | polyreactivity (PSR sort gate)
23 | QVQLVESGGRLVQAGGSLRLSCAASGSIFVHNAMGWYRQAPGKERDLVAANTWSGGSTYYADSVKGRFTISRDNAKNTVYLQMNSVKPEDTAVYYCAAEDVAAQWAYESPTSYWYYYWGQGTQVTVSS | low polyreactivity
24 | QVQLVESGGGLVQAGGSLRLSCAASGFTLGCYAMGWYRQAPGKERELVAAITRDGSSTYYADSVKGRFTISRDNAKNTVYLQMNRLKPEDTAVYYCAAERKKKYDYWGQGTQVTVSS | high polyreactivity
25 | QVQLVESGGGLVQAGGSLRLSCAASGRTSKGNTMGWYRQAPGKEREFVATISRSGGSTYYADSVKGRFTISRDNAKNTVYLQMNSLKPEDTAVYYCAARISRQRSYSRDYWGQGTQVTVSS | high polyreactivity
26 | QVQLVESGGGLVQAGGSLRLSCAASGRTFAKYAMGWYRQAPGKERELVAAISDSGGSTYYADSVKGRFTISRDNAKNTVYLQMNSLKPEDTAVYYCAADGRYTYYWGQGTQVTVSS | high polyreactivity
27 | QVQLVESGGGLVQAGGTLRLSCAASGRIFTHNAMGWYRQAPGKERELVAAITSGGRTTYADSVKGRFTISRDNAKNTVYLQMNSLKPEDTAVYYCNADTGLGSLDFDKRDYWGQGTQVNVSS | low polyreactivity
28 | QVQLEESGGGLVQAGGSLPLSCAASGVIFGYYAMGWYIQAPGKERELVAAISKSGGSTYYADSVKARFTISRDNAKNTVYVQMNSLIPEDTAVYDCNADPRTASDQLEFDYWGQGTQVNVSS | low polyreactivity
29 | QVQLVESGGRLVQAGGSLRLSCAASGRISPYAMGWYRQAPGKERELVAAISSRGGRTYYADSVKGRWTISRDNAKNTVYLEMNSQKPEDTAVYYCAVYPRSTLRTFQRDYWGQGTQVTVSS | high polyreactivity
30 | QVQLVESGGGLVQAGGRLRLSCAASGSISYFNDMGWYRQAPGKERELVAAIRDSGGITYADSVKGRFTISRDNAKNTVYLQMNSLKPEDTAVYYCATYGNEIYDYWGQGTQVTVSS | low polyreactivity
31 | QEQLQESGGGLVQAGGSLRLSCAASGYISQSSVMGWYRQAPGKEREFVASISYGATTYYADSVKGRFTISRDNAKNTVYLQTNSRKPEDTAVYYCAVWVKRGFSHRYWGQGTQVTVSS | high polyreactivity
32 | QVQLVESGGGLVQAGGSLRLSCAASGRTIRHNAMGWYRQAPGKERELVAAISRSGGSTYYADSVKGRFTISRDNAKNTVYLQMNSLKPEDTAVYYCAAGYHIIYTPEYYYWGQGTQVTVSS | high polyreactivity
33 | QVQLVESCGGLVQAGGSLRLSCAASGLTYRYYAMGWYRKAPGKERELVAAITSSGTSTYYADSVKGRFTISRDNAKNTVSLQMNSLKAEDTAVSYCAVRQSQKYGLFYYGGQGTQVTVSS | high polyreactivity
34 | QVQLVESGGGLVQAGGSLRLSCAASGSTFNKYAMVWYRQAPGKERELVAAITGSGGRTYYADSVKGRFTISRDTAKNTVYLQMNSLKPEHTAVYYCNAGITHGYDYWGQGTQVSVSS | high polyreactivity
35 | QVQLVESGGGLVQAGGSLRLSCAASGSIFLYNAMGWYRQAPGKERELVAAISAIGSNTYYADSVKGRFTISRDNAKNTVYLQMNSLKPEDTAVYYCAAESVNVVNFGTRVGYWGQGTQVTVSS | high polyreactivity
36 | QVQLVESGGGLVQAGGSLRLSCASSGFIFRGYAMGWYRQAPGKERELVAVISRSGTSTYYADSVKGRFTISRDNAKITVYLQMNSLKPEDTAVYYCAKEVWPRYIRQAYLSGYESWGQGTQVTVSS | high polyreactivity
37 | QVQLEESGGGLYQAGGSLRLSCAASGSILDFNAMVWYRQAPGKEMELVASIRWSGGSTYYADSVKGRFTISRDYAKNTVYFQMNSLKPEDTAVYYCAAVTYGYYRSRYSSIQPNEYDYLGQGTQVTVSS | high polyreactivity
38 | QVQLVESGGGLVQAGGSLRLSCAASGSIFYGYAMGWYRQAAGNERELVAAITTGGSTYCADSVKGRFTISRDNAKNTVYLQMNSLKPEDTAVYYCAAKYYTGGSFEMYYWGQGNQVTVSS | high polyreactivity
39 | QVQLVESGGRLVQAGGSLRLSCAASGLTITRNAMGWYRQAPGKERELVAAISWSGGSTYYADSVKGRFTISRDNAKNTVYLQMNSLKPEDTAVYDCAAEPYKQYTGYYYSGFEYWGQGTQVTVSS | high polyreactivity
40 | QVQLVESGGGLVQAGGSLRLSCAASGIIFSYNAMGWYRQAPGKERELVAAITRTGSTNYADSVKGRFTISRDNAKNTVYLQMNSLKPEDTAVYYCAAGWGYGRYRHVGYRMDYWGQGTQVTVSS | high polyreactivity
41 | QVQLVESGGGLVHAGGSLRLSCAASGRIFTAYAMGWYRQAPGKERELVASISTSGGRTYYADSVKGLFTISRDNAKNTVYLQMNSLIPEDTAVYYFAADFESYSRYYDGYDYWGQGTQVTVSS | high polyreactivity
42 | QVQLVESGGGLVQEGGSLRLSCAASGSTFSIYAMGWYRQAPGKERELVAGISGSGGSTYYADSVKGRFTISRDNAKNTVYLQMNSLKPEDTAVYYCAKRVLWGLDYCGQGTQVTVSS | low polyreactivity
43 | QVQLVESGGGLVQAGGSLRLSCAASGSTFSRNVMGWYRQAPGKERELVAAISRGGSTNYADSVKGRFTISRENAKNTVYLQMNSLKPEDTAVYYCNAPRLGKFYYWGQGTQVTVSS | low polyreactivity
